According to article PMC10462622:

Tests used:
[1] = molecular target: HIV-1 NL4-3 Vif N48H (residues 1-176) (HIV-1 (pNL4-3)) (UniProt P12504)
[2] = molecular target: HIV-1 pNL4-3 Vif N48H/R93E, expressed in HEK293T (HIV-1 (pNL4-3)) (UniProt P12504)

## human A3H K97Q/E70R, expressed in HEK293T (natural protein)
[1]
  Vif-mediated degradation assay: resistance of A3H to Vif (+N48H), Western blot: 40%

## human A3H haplotype II K97Q (MBP tag cleaved) (natural protein)
[2]
  Vif-mediated degradation assay: increase of the A3H level in the presence of the Vif mutant, Western blot: 70%
